From patent US20160251438A1 (LUDWIG INSTITUTE FOR CANCER RESEARCH, published 2016)

What was measured:
Assay in all cases: flow cytometry titration on transfected 293T cells; grade of Reduced avidity read by footnote 3
[1] = biological target: GARP / TGF-β1 Q272Y complex (human, UniProt Q14392 20-662; P01137 30-390)
Protocol: (§1) Intensities of staining at each concentration of antibody relative to the maximal intensity measured at 5 μg/ml were determined as follows:
(§2) The relative staining intensities were plotted according to the concentration of antibody used for staining, and a non-linear regression analysis was used with the Prism software to determine an EC₅₀ value for binding of the antibody to the WT and to each of the various mutant GARP/TGF-β1 complexes. If the ratio between the EC₅₀ measured on the mutant and the EC₅₀ measured on the WT was >2, the mutation was considered to induce a reduced avidity for binding by the antibody. The ratio of EC₅₀ (mutant vs WT) for MHG-8 and LHG-10 are indicated below each mutation on FIG. 19, parts A and B, respectively.

[2] = biological target: GARP / TGF-β1 K338E complex (human, UniProt Q14392 20-662; P01137 30-390)
Protocol: as §1, §2

[3] = biological target: GARP Y137H/S138G/G139N / TGF-β1 complex (human, UniProt Q14392 20-662; P01137 30-390)
Protocol: as §1, §2

[4] = biological target: GARP E189A / TGF-β1 complex (human, UniProt Q14392 20-662; P01137 30-390)
Protocol: as §1, §2

[5] = biological target: GARP R143Y / TGF-β1 complex (human, UniProt Q14392 20-662; P01137 30-390)
Protocol: as §1, §2

[6] = biological target: GARP / TGF-β1 E146R complex (human, UniProt Q14392 20-662; P01137 30-390)
Protocol: as §1, §2

[7] = biological target: GARP R170A / TGF-β1 complex (human, UniProt Q14392 20-662; P01137 30-390)
Protocol: as §1, §2

[8] = biological target: GARP G118L/G119L / TGF-β1 complex (human, UniProt Q14392 20-662; P01137 30-390)
Protocol: as §1, §2

[9] = biological target: GARP / TGF-β1 H270Y complex (human, UniProt Q14392 20-662; P01137 30-390)
Protocol: as §1, §2

[10] = biological target: GARP M111T/A112G/T113M / TGF-β1 complex (human, UniProt Q14392 20-662; P01137 30-390)
Protocol: as §1, §2

[11] = biological target: GARP T165A / TGF-β1 complex (human, UniProt Q14392 20-662; P01137 30-390)
Protocol: as §1, §2

[12] = biological target: GARP Y137H / TGF-β1 complex (human, UniProt Q14392 20-662; P01137 30-390)
Protocol: as §1, §2

[13] = biological target: GARP / TGF-β1 Q269Y complex (human, UniProt Q14392 20-662; P01137 30-390)
Protocol: as §1, §2

[14] = biological target: GARP / TGF-β1 S337A complex (human, UniProt Q14392 20-662; P01137 30-390)
Protocol: as §1, §2

[15] = biological target: GARP R163E / TGF-β1 complex (human, UniProt Q14392 20-662; P01137 30-390)
Protocol: as §1, §2

[16] = biological target: GARP / TGF-β1 Y284A complex (human, UniProt Q14392 20-662; P01137 30-390)
Protocol: as §1, §2

[17] = biological target: GARP / TGF-β1 Y336A complex (human, UniProt Q14392 20-662; P01137 30-390)
Protocol: as §1, §2

[18] = biological target: GARP R166M/H167E / TGF-β1 complex (human, UniProt Q14392 20-662; P01137 30-390)
Protocol: as §1, §2

[19] = biological target: GARP / TGF-β1 R58A complex (human, UniProt Q14392 20-662; P01137 30-390)
Protocol: as §1, §2

[20] = biological target: GARP L140K/E142L / TGF-β1 complex (human, UniProt Q14392 20-662; P01137 30-390)
Protocol: as §1, §2

[21] = biological target: GARP T162D / TGF-β1 complex (human, UniProt Q14392 20-662; P01137 30-390)
Protocol: as §1, §2

Sequence of GARP E189A / TGF-β1 complex (Q14392 20-662 E189A limits assumed, chain 1 of 2): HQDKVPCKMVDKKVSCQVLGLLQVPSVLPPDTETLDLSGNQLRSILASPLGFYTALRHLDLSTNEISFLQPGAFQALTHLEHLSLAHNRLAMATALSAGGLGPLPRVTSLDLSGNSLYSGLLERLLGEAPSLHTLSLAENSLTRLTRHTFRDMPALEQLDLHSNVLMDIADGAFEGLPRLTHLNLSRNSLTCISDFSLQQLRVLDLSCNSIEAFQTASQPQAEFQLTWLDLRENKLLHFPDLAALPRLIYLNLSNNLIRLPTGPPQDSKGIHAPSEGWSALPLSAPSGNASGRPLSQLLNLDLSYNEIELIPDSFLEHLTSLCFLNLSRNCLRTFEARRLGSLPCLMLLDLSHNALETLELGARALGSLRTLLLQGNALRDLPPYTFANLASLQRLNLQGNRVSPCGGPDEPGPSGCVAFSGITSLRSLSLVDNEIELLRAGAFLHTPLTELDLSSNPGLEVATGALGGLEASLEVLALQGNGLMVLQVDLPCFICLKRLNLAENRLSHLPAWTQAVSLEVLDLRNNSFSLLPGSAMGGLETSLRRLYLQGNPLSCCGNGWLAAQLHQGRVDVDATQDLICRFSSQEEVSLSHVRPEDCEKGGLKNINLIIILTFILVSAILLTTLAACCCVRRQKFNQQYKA
Sequence of GARP E189A / TGF-β1 complex (P01137 30-390 limits assumed, chain 2 of 2): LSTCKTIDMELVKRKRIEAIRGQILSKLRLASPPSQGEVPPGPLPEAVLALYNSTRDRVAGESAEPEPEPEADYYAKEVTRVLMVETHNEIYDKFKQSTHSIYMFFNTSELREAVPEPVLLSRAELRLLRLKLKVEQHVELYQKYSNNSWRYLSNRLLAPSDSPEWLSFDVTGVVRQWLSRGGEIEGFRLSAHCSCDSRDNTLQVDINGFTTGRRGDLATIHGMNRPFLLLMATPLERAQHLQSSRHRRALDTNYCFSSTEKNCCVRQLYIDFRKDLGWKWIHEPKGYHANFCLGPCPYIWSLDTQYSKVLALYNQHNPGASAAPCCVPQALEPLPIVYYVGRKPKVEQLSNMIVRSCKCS
Sequence of GARP R170A / TGF-β1 complex (Q14392 20-662 R170A limits assumed, chain 1 of 2): as the sequence (Q14392 20-662 E189A limits assumed, chain 1 of 2) above, with R151A, A170E counted along it
Sequence of GARP R170A / TGF-β1 complex (P01137 30-390 limits assumed, chain 2 of 2): as the sequence (P01137 30-390 limits assumed, chain 2 of 2) above
Sequence of GARP T162D / TGF-β1 complex (Q14392 20-662 T162D limits assumed, chain 1 of 2): as the sequence (Q14392 20-662 E189A limits assumed, chain 1 of 2) above, with T143D, A170E counted along it
Sequence of GARP T162D / TGF-β1 complex (P01137 30-390 limits assumed, chain 2 of 2): as the sequence (P01137 30-390 limits assumed, chain 2 of 2) above
Sequence of GARP G118L/G119L / TGF-β1 complex (Q14392 20-662 G118L/G119L limits assumed, chain 1 of 2): as the sequence (Q14392 20-662 E189A limits assumed, chain 1 of 2) above, with G99L, G100L, A170E counted along it
Sequence of GARP G118L/G119L / TGF-β1 complex (P01137 30-390 limits assumed, chain 2 of 2): as the sequence (P01137 30-390 limits assumed, chain 2 of 2) above

- ratio of EC50 (mutant vs WT) [1]: ≤ 2 ratio
- ratio of EC50 (mutant vs WT) [2]: ≤ 2 ratio
- ratio of EC50 (mutant vs WT) [3]: > 2 ratio
- ratio of EC50 (mutant vs WT) [4]: ≤ 2 ratio
- ratio of EC50 (mutant vs WT) [5]: ≤ 2 ratio
- ratio of EC50 (mutant vs WT) [6]: ≤ 2 ratio
- ratio of EC50 (mutant vs WT) [7]: ≤ 2 ratio
- ratio of EC50 (mutant vs WT) [8]: ≤ 2 ratio
- ratio of EC50 (mutant vs WT) [9]: ≤ 2 ratio
- ratio of EC50 (mutant vs WT) [10]: ≤ 2 ratio
- ratio of EC50 (mutant vs WT) [11]: ≤ 2 ratio
- ratio of EC50 (mutant vs WT) [12]: ≤ 2 ratio
- ratio of EC50 (mutant vs WT) [13]: ≤ 2 ratio
- ratio of EC50 (mutant vs WT) [14]: ≤ 2 ratio
- ratio of EC50 (mutant vs WT) [15]: > 2 ratio
- ratio of EC50 (mutant vs WT) [16]: ≤ 2 ratio
- ratio of EC50 (mutant vs WT) [17]: ≤ 2 ratio
- ratio of EC50 (mutant vs WT) [18]: ≤ 2 ratio
- ratio of EC50 (mutant vs WT) [19]: ≤ 2 ratio
- ratio of EC50 (mutant vs WT) [20]: ≤ 2 ratio
- ratio of EC50 (mutant vs WT) [21]: > 2 ratio
B1: LHG-10 (antibody, human IgG1, V domains shown)
VH: EVQLVQPGAELRNSGASVKVSCKASGYRFTSYYIDWVRQAPGQGLEWMGRIDPEDGGTKYAQKFQGRVTFTADTSTSTAYVELSSLRSEDTAVYYCARNEWETVVVGDLMYEYEYWGQGTQVTVSS
VL: DIQMTQSPTSLSASLGDRVTITCQASQSISSYLAWYQQKPGQAPKLLIYGASRLQTGVPSRFSGSGSGTSFTLTISGLEAEDAGTYYCQQYDSLPVTFGQGTKVELK
notes: llama-derived V regions in a full human IgG1
